According to patent US6160106:

Target: Fas/APO-1 (human) (UniProt P25445)

agonistic anti-APO-1 monoclonal antibody
cell death of HeLa cells (rounding up and detachment, neutral red dye uptake): 70%
